Measurements as given in US20120184016A1, “NOVEL PROTEIN AND GENE THAT CODES THEREFOR” (priority 2009, published 2012).
Several values for one entry are separate records, joined by “and”; a condition that tells them apart may be missing. Equal entries are not always repeated.

Experiments:
[1] = Sialyltransferase activity of crude enzyme solution (14C CMP-NeuAc transfer to lactose); format: biochemical; details: crude enzyme extraction solution from transformed E. coli; with acceptor (120 mM lactose); 30° C. for 30 minutes; duplicate
[2] = Optimum pH and optimum temperature for sialyltransferase enzyme activity; format: biochemical; details: purified enzyme
From the text: The optimum pH and the optimum temperature of the recombinant β-galactoside-α2,6-sialyltransferase SHIZ119-N1C0 derived from the JT-SHIZ-119 strain were investigated using the purified enzyme prepared in Example 3.
Acetate buffer (pH 4.0 to 5.0), cacodylate buffer (pH 5.0 to 6.0), Bis-Tris buffer (pH 6.0 to 7.0), phosphate buffer (pH 7.0 to 8.0), TAPS buffer (pH 8.0 to 9.0), CHES buffer (pH 9.0 to 10.0), and CAPS buffer (pH 10.0 to 11.0) were each prepared and were used for enzyme activity measurement at 30° C. at various pH levels.
The enzyme activity was measured at every increment of 5° C. starting from 5° C. up to 50° C. using cacodylate buffer (pH 5.0).

[3] = tested on: JT-SHIZ-119-derived recombinant β-galactoside-α2,6-sialyltransferase N1C0 (neuraminidase activity); experiment: Substrate specificity of neuraminidase activity with PA-sugar chains, HPLC; format: biochemical, Photobacterium leiognathi strain JT-SHIZ-119; details: PA-sugar chains with α2,3-, α2,6- or α2,8-linked sialic acid; 30° C. for 18 hours
Protocol: The substrate specificity of neuraminidase, that is, the linkage mode of sialic acid to a sugar chain that is cleaved by the neuraminidase can be determined by, but not limited to, a method using a pyridylaminated sugar chain. More specifically, the enzyme reaction by neuraminidase is performed using PA sugar chains in which sialic acid is linked by α2,3-linkage, α2,6-linkage, or α2,8-linkage (for example, pyridylaminated sugar chains such as PA-Sugar Chain 029, PA-Sugar Chain 023, and PA-Sugar Chain 034 available from Takara Bio Inc.). The reaction product is analyzed by high performance liquid chromatography, and the amount of sialic acid that was cleaved is calculated from the retention time and peak area of the reaction product.
To reveal the specificity of the neuraminidase activity of the JT-SHIZ-119-derived recombinant β-galactoside-α2,6-sialyltransferase N1C0, reactions using a PA-sugar chain shown in Table 4, to which sialic acid is linked via α2,3-, α2,6-, or α2,8-linkage (PA-Sugar Chain 029, PA-Sugar Chain 023, or PA-Sugar Chain 034, manufactured by Takara Bio Inc.) as a substrate were performed.
To a purified enzyme solution of the JT-SHIZ-119-derived recombinant β-galactoside-α2,6-sialyltransferase N1C0 (equivalent to 0.6 U as sialyltransferase activity), 1.5 μL of a 10 pmol/μL PA-sugar chain was added, followed by reaction at 30° C. for 18 hours. After completion of the reaction, the reaction solution was treated at 100° C. for 2 minutes to inactivate the enzyme, followed by HPLC to analyze the reaction product. In the case of using PA-Sugar Chain 023 as the substrate, the pyridylaminated sugar chain was eluted and analyzed under the same conditions as those in Example 1. In the case of using PA-Sugar Chain 029 or PA-Sugar Chain 034 as the substrate, the elution was performed using eluent A (100 mM acetate-triethylamine, pH 5.0) and eluent B (100 mM acetate-triethylamine containing 0.5% n-butanol, pH 5.0) with a linear gradient of 0 to 100% eluent B (0 to 35 min), 100% eluent B (35 to 50 min), and then a linear gradient of 100% to 30% eluent B (51 to 75 min). The analysis was performed under the conditions of Example 1. FIGS. 3-2 to 3-8 show the results.

B1: SHIZ119-N1C0 (protein)
chain: MCNDNQNTVDVVVSTVNDNVIENNTYQVKPIDTPTTFDSYSWIQTCGTPILKDDEKYSLSFDFVAPELDQDEKFCFEFTGDVDGKRYVTQTNLTVVAPTLEVYVDHASLPSLQQLMKIIQQKNEYSQNERFISWGRIGLTEDNAEKLNAHIYPLAGNNTSQELVDAVIDYADSKNRLNLELNTNTAHSFPNLAPILRIISSKSNILISNINLYDDGSAEYVNLYNWKDTEDKSVKLSDSFLVLKDYFNGISSEKPSGIYGRYNWHQLYNTSYYFLRKDYLTVEPQLHDLREYLGGSLKQMSWDGFSQLSKGDKELFLNIVGFDQEKLQQEYQQSELPNFVFTGTTTWAGGETKEYYAQQQVNVVNNAINETSPYYLGREHDLFFKGHPRGGIINDIILGSFNNMIDIPAKVSFEVLMMTGMLPDTVGGIASSLYFSIPAEKVSFIVFTSSDTITDREDALKSPLVQVMMTLGIVKEKDVLFWSDLPDCSSGVCIAQY
modifications: beta-galacoside-alpha-2,6-sialyltransferase from phorobacterium leiognathi (without signal peptide)
- Transferred NeuAc [1]: 7786 cpm and 8446 cpm
- pH at which sialyltransferase enzyme activity is the highest (optimum pH) ([2]; 30° C., pH 4.0 to 11.0, FIG. 2-1): 5.0
- temperature at which sialyltransferase enzyme activity is the highest (optimum temperature) ([2]; cacodylate buffer (pH 5.0), 5° C. up to 50° C., FIG. 2-2): 35 °C
- specificity of neuraminidase activity (linkage mode) [3]: specific to sialic acid of α2,6-linkage
